Reference: PMC9176643 (bioRxiv, 2022)

Molecular target: SARS-CoV Urbani RBD (SARS-CoV Urbani, UniProt P59594)
Test: ELISA

B1: S2X324 mAb (antibody, V domains shown)
VH: QITLKESGPTLVKPTQTLTLTCTFSGFSVTTSGVGVGWIRQPPGKALEYLALIYWDDDKRYSTSLKSRLTITKDTSKNQVVLTMTNMDPVDTATYYCARHTIPSIFDYWGQGILVTVSS
VL: QPVLTQPASVSGSPGQSITISCTATSSDVGNYNYVSWYQHHPGKAPKLMIYEVSNRPSGVSNRFSGSKSGNTASLTISGLQAEDEADYYCSSYTSSSLLFGGGTKLTVL
  binding result: no binding
